The results in this text go back to patent publication US20250197487A1 (AKESO BIOPHARMA, published 2025).

Assay [1] has as its target T1, PD-1 on the surface of 293T-PD-1 cells (UniProt Q15116 25-288, limits assumed).
T1 construct: whole, on cells
Description: FACS, 293T-PD-1 cells, antibody 1.23 nM. Here is the method: (§1) Then PBS was used for washing, and 300 μL of PBSA was used to resuspend the cells, and fluorescence signals (MFI) were detected with FITC channel on a flow cytometer.
(In flow cytometry, cells or beads pass a laser one at a time.)

Assay [2] deals with T1, PD-1 on the surface of 293T-PD-1 cells. Briefly: FACS (2nd), 293T-PD-1 cells. Here is the method: as §1
For assay [3] the target is unchanged. Description: FACS (2nd), 293T-PD-1 cells, antibody 0.14 nM. As for the experimental part:
as §1

For assay [4] the target is unchanged. Description: FACS, 293T-PD-1 cells, antibody 3.70 nM. As for the experimental part: as §1
The target is the same in assay [5]. Description: competitive FACS, 293T-PD-1 cells, competitor PD-L1-mFc 20 nM. Here is the method:
(§2) Then 500 μL of 1% PBSA was added, and the mixture was centrifuged at 5600 rpm for 5 minutes to remove the supernatant. 100 μL of FITC […] anti mouse antibody diluted at a ratio of 1:500 was then added into each tube, and the mixture was incubated on ice for 40 minutes in the absence of light after being mixed well. Then the mixture was centrifuged, washed and resuspended, and then transferred to a loading tube for testing.

Assay [6] has the same target. Briefly: FACS (2nd), 293T-PD-1 cells, antibody 30 nM. As for the experimental part: as §1
Assay [7] deals with T2, fusion protein PD-1-hFc (UniProt Q15116 25-170).
T2 construct: not shown: hFc (Fc of human IgG)
T2 sequence (Q15116 25-170): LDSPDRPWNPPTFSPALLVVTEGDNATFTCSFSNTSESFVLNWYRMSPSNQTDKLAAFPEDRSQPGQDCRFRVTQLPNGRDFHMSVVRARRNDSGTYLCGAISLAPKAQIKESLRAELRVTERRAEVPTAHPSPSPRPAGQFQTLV
Briefly: competitive ELISA, PD-1-hFc coat 0.5 µg/mL, competitor PD-L1-mFc 0.3 µg/ml. Here is the method:
The microplate was coated with PD-1-hFc and incubated overnight at 4° C. […] After incubation at 37° C. for 30 minutes, the microplate was washed and patted dry. Then enzyme-labeled secondary antibody was added, and the microplate was incubated at 37° C. for 30 minutes. After the microplate was washed and patted dry, TMB was added for color developing for 5 minutes, and then stop solution was added to terminate the color development. […] SoftMax Pro 6.2.1 was used to analyze and process the data.
For orientation: In an ELISA, binding on a coated surface is turned into a signal by an enzyme label.

Assay [8] concerns the target T1, PD-1 on the surface of 293T-PD-1 cells. Description: competitive FACS (2nd), 293T-PD-1 cells, competitor PD-L1. Here is the method: as §2
Assay [9] shares this target. Description: FACS, 293T-PD-1 cells. As for the experimental part: as §1
The target is the same in assay [10]. Description: FACS (2nd), 293T-PD-1 cells, antibody 0.41 nM. As for the experimental part:
as §1

The target in assay [11] is T3, fusion protein PD-1-mFc (human, UniProt Q15116 25-170).
T3 construct: also called human PD-1-mFc; not shown: mFc (Fc of mouse IgG)
T3 sequence (Q15116 25-170): as above
Description: BLI (Fortebio), antibody on AHC sensor, PD-1-mFc 0.62-50 nM, 1:1 fit. As for the experimental part: The sample dilution buffer was PBS (0.02% Tween-20, 0.1% BSA, pH7.4). 5 μg/mL antibody was immobilized to an AHC sensor with the immobilization height being about […]. The sensor was equilibrated in a buffer for 60 s, and the antibody immobilized to the sensor bound to PD-1-mFc at a concentration of 0.62-50 nM (three-fold gradient dilution) for 120 s, and then the antigen and antibody dissociated in the buffer for 300 s. The data were analyzed by 1:1 model fitting to obtain affinity constants. The data acquisition software was Fortebio Data Acquisition 7.0, and the data analysis software was Fortebio Data Analysis 7.0.
In general terms: Biolayer interferometry detects binding as a change in optical thickness at a sensor tip.

The target in assay [12] is T1, PD-1 on the surface of 293T-PD-1 cells. Description: FACS, 293T-PD-1 cells, antibody 0.41 nM. Here is the method: as §1
Assay [13] deals with T3, fusion protein PD-1-mFc. Briefly: indirect ELISA (2nd), PD-1-mFc coat 0.5 µg/mL. Here is the method:
(§3) The microplate was coated with human PD-1-mFc and incubated overnight at 4° C. After being blocked with 1% BSA at 37° C. for 2 hours, the microplate was added with antibody, and then incubated at 37° C. for 30 minutes. […] After the microplate was washed and patted dry, TMB (Neogen, 308177) was added for color developing for 5 minutes, and then stop solution was added to terminate the color development. Then the microplate was put into a microplate reader immediately, and the OD value of each well in the microplate was read at 450 nm. SoftMax Pro 6.2.1 was used to analyze and process the data.

Assay [14] deals with T1, PD-1 on the surface of 293T-PD-1 cells. Description: FACS, 293T-PD-1 cells, antibody 33.33 nM. Here is the method:
as §1

For assay [15], the target named is T3, fusion protein PD-1-mFc. Briefly: indirect ELISA, PD-1-mFc coat 0.5 µg/mL. Here is the method:
as §3

For assay [16], the target named is T1, PD-1 on the surface of 293T-PD-1 cells. Briefly: FACS (2nd), 293T-PD-1 cells, antibody 1.23 nM. As for the experimental part: as §1
Assay [17] shares this target. Description: FACS, 293T-PD-1 cells, antibody 0.14 nM. Here is the method:
as §1

For assay [18] the target is unchanged. Description: FACS (2nd), 293T-PD-1 cells, antibody 11 nM. As for the experimental part:
as §1

The target is the same in assay [19]. Description: FACS, 293T-PD-1 cells, antibody 100 nM. As for the experimental part:
as §1

In assay [20] the target is T3, fusion protein PD-1-mFc. Briefly: indirect ELISA, antibody 0 (blank).
Assay [21] addresses T1, PD-1 on the surface of 293T-PD-1 cells. Briefly: FACS, 293T-PD-1 cells, antibody 11.11 nM. Here is the method:
as §1

Assay [22] shares this target. Description: FACS (2nd), 293T-PD-1 cells, antibody 0.014 nM. As for the experimental part:
as §1

For assay [23] the target is unchanged. Briefly: FACS (2nd), 293T-PD-1 cells, antibody 3.7 nM. Here is the method: as §1
The target is the same in assay [24]. Briefly: FACS (2nd), 293T-PD-1 cells, antibody 100 nM. Here is the method:
as §1

T1 sequence (Q15116 25-288 limits assumed): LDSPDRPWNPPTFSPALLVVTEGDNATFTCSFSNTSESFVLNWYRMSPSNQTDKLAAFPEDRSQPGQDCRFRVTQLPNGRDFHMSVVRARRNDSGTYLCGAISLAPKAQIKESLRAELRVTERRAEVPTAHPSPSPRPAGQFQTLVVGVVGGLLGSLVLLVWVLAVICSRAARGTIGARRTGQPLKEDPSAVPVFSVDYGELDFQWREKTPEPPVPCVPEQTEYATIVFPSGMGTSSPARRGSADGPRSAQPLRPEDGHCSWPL

B1: anti-PD-1 humanized antibody 14C12H1L1 (antibody, V domains shown)
VH: EVQLVESGGGLVQPGGSLRLSCAASGFAFSSYDMSWVRQAPGKGLDWVATISGGGRYTYYPDSVKGRFTISRDNSKNNLYLQMNSLRAEDTALYYCANRYGEAWFAYWGQGTLVTVSS
VL: DIQMTQSPSSMSASVGDRVTFTCRASQDINTYLSWFQQKPGKSPKTLIYRANRLVSGVPSRFSGSGSGQDYTLTISSLQPEDMATYYCLQYDEFPLTFGAGTKLELK
As to B1, the MFI in [1] was 202; in [3] it was 29.6; in assay [4], 409; in [6], 831; in assay [10], 69.2; in assay [12], 99.7. Moreover, the MFI came to 655 in assay [14]; 176 in [16]; 48.1 in assay [17]; 868 in [18]; 671 in [19]; 600 in assay [21]. In addition, the MFI in assay [22] is 7.4; in [23], 423; in assay [24] it was 814. Further, the EC50 in assay [2] turned out to be 3.61 nM; in assay [5], 4.37 nM; in [7], 0.745 nM; in [8], 9.21 nM; in [9] it was 2.9 nM; in assay [13], 0.045 nM. The molecule also displayed an EC50 in assay [15] of 0.037 nM. The affinity in assay [11], expressed as Kd, was 0.164 nM. The “OD 450 nm” value in assay [20] came to 0.053.

As a reminder, the EC50 is the concentration giving half of the maximal effect. A low value points to greater potency. As usually defined, the Kd is the concentration at which binding is half-saturated.
